The values below come from publication PMC11632364, “Interactions that define the arrangement of sugar-binding sites in BDCA-2 and dectin-2 dimers” (Glycobiology, 2024).

Data set [1] concerns the target dectin-2 extracellular fragment beginning with His44 fused to an N-terminal 3-heptad coiled-coil dimerization domain (human) (UniProt Q6EIG7). Briefly: SEC; 1 x 30 cm Superdex S75, 10 mM Tris-Cl pH 7.8, 100 mM NaCl, 2.5 mM EDTA, 0.5 mL/min, room temperature; some fragments analysed at serial dilutions.
Data set [2] shares this target. Briefly: cross-linking; dectin-2 extracellular domain with dimerization domain in HEPES pH 7.8 buffers, bis(sulfosuccinimidyl) suberate or disuccinimidyl tartrate, serial dilutions, room temperature 30 min, reducing 17.5% SDS-PAGE, Coomassie blue.
Data set [3] deals with BDCA-2 Ser49Cys variant extracellular domain fused to an N-terminal 3-heptad coiled-coil dimerization domain (human) (UniProt Q8WTT0). Nature of the data set: SEC; 1 x 30 cm Superdex S75, 10 mM Tris-Cl pH 7.8, 100 mM NaCl, 2.5 mM EDTA, 0.5 mL/min, room temperature; some fragments analysed at serial dilutions.
Data set [4] shares this target. Nature of the data set: non-reducing versus reducing SDS-PAGE (disulfide-linked dimer); bacterially expressed extracellular domain fusions eluted from a 5-mL desialylated egg glycopeptide column with EDTA, gels with or without 2-mercaptoethanol, Coomassie blue.
Data set [5] concerns the target wild type BDCA-2 extracellular domain (from His44) fused to an N-terminal 3-heptad coiled-coil dimerization domain (human) (UniProt Q8WTT0). Nature of the data set: SEC; 1 x 30 cm Superdex S75, 10 mM Tris-Cl pH 7.8, 100 mM NaCl, 2.5 mM EDTA, 0.5 mL/min, room temperature; some fragments analysed at serial dilutions.
Data set [6] deals with the molecule itself. The description is as above.
Data set [7] deals with the molecule itself. Nature of the data set: cross-linking; BDCA-2 purified from HEK cells in HEPES pH 7.8 buffers, pooled fractions reacted with various concentrations of bifunctional reagent for 30 min, reducing SDS-PAGE, western blot.
Data set [8] concerns the molecule itself. Briefly: non-reducing versus reducing SDS-PAGE (disulfide-linked dimer); BDCA-2 purified from HEK cells by affinity chromatography (lysis with N-ethylmaleimide), gels with or without 2-mercaptoethanol, western blot with anti-BDCA-2 antiserum.

On to “dectin-2 extracellular fragment beginning with His44 fused to an N-terminal 3-heptad coiled-coil dimerization domain (from UniProt Q6EIG7 44-209)”, for which the stoichiometry N in data set [1] and in data set [2] was 2 in each case.
Regarding “BDCA-2 Ser49Cys variant extracellular domain fused to an N-terminal 3-heptad coiled-coil dimerization domain (from UniProt Q8WTT0 44-213)”, the stoichiometry N in data set [3] and in data set [4] was 2 each time.
For “wild type BDCA-2 extracellular domain (from His44) fused to an N-terminal 3-heptad coiled-coil dimerization domain (from UniProt Q8WTT0 44-213)”, the stoichiometry N in data set [5] was found to be 2.

B1: dectin-2 extracellular domain starting at Val40 (CRD plus full neck) (domain or fragment, human, UniProt Q6EIG7 40-209, looked up)
chain: VVTYHFTYGETGKRLSELHSYHSSLTCFSEGTKVPAWGCCPASWKSFGSSCYFISSEEKVWSKSEQNCVEMGAHLVVFNTEAEQNFIVQQLNESFSYFLGLSDPQGNNNWQWIDKTPYEKNVRFWHLGEPNHSAEQCASIVFWKPTGWGWNDVICETRRNSICEMNKIYL
notes: human dectin-2 (CLEC-6A) extracellular region starting at Val40; also called full extracellular domain of dectin-2; CRD plus neck fragment starting at residue Val40; source: E. coli BL21(DE3), inclusion bodies, renatured, purified on mannose-Sepharose
In the case of B1, in data set [6], the “stoichiometry N” value was found to be 2.

B2: blood dendritic cell antigen 2 (BDCA-2), full-length, wild type (receptor, human, UniProt Q8WTT0 1-213, looked up)
chain: MVPEEEPQDREKGLWWFQLKVWSMAVVSILLLSVCFTVSSVVPHNFMYSKTVKRLSKLREYQQYHPSLTCVMEGKDIEDWSCCPTPWTSFQSSCYFISTGMQSWTKSQKNCSVMGADLVVINTREEQDFIIQNLKRNSSYFLGLSDPGGRRHWQWVDQTPYNENVTFWHSGEPNNLDERCAIINFRSSEEWGWNDIHCHVPQKSICKMKKIYI
modifications: N-linked glycans (high mannose and complex)
notes: human BDCA-2, full-length protein expressed in HEK cells; Co-expressed with human FcRγ; no tag is mentioned; also called wild-type BDCA-2; source: HEK 293 cells, stably co-transfected with FcRγ; in lysate and purified from lysate on a desialylated egg-glycopeptide column
For the molecule B2, the “stoichiometry N” value in data set [7] came out at 2.

B3: BDCA-2 Ser49Cys variant, full-length (receptor, human, UniProt Q8WTT0 1-213, looked up)
chain: MVPEEEPQDREKGLWWFQLKVWSMAVVSILLLSVCFTVSSVVPHNFMYCKTVKRLSKLREYQQYHPSLTCVMEGKDIEDWSCCPTPWTSFQSSCYFISTGMQSWTKSQKNCSVMGADLVVINTREEQDFIIQNLKRNSSYFLGLSDPGGRRHWQWVDQTPYNENVTFWHSGEPNNLDERCAIINFRSSEEWGWNDIHCHVPQKSICKMKKIYI
modifications: interchain disulfide bond at Cys49; N-linked glycans (high mannose and complex)
notes: human BDCA-2, full-length construct with the naturally occurring change Ser49Cys (SNP found in a single individual); Co-expressed with human FcRγ; also called Ser49Cys form of BDCA-2; source: HEK 293 cells, stably co-transfected with FcRγ; in lysate and purified from lysate on a desialylated egg-glycopeptide column
In the case of B3, the “stoichiometry N” value in data set [8] was 2.
